Data from patent US20170233497A1.
Substitutions are numbered along the chain they refer to. Numbers in names are those of the source.

B1: CH2-CH3 fragment of human IgG1 with F405L, P01857 224-330 (protein, UniProt P01857-1 224-330, looked up, name in EU numbering, not shown: small tags and cut ends)
chain: GQPREPQVYTLPPSRDELTKNQVSLTCLVKGFYPSDIAVEWESNGQPENNYKTTPPVLDSDGSFLLYSKLTVDKSRWQQGNVFSCSVMHEALHNHYTQKSLSLSPGK
B2: CH2-CH3 fragment of human IgG1 with T350I-K370T-F405L, P01857 224-330 (protein, UniProt P01857-1 224-330, looked up, name in EU numbering, not shown: small tags and cut ends)
chain: B1 chain with T10I, K30T

Molecular target: IgG1Δhinge fragment of IgG1-7D8-K409R (human)
Experiment: native mass spectrometry; CH2-CH3 fragment mixed 24 h with the IgG1Δhinge fragment of IgG1-7D8-K409R (heterodimer)

Binder | Kd
B1 | 12 nM
B2 | 17 nM
